These results are taken from patent publication US12281155.

Conditions in all cases: remark: other sources report otherwise
For experiment [1], the target named is T1, recombinant SARS-CoV-2 Spike RBD domain, BA.2 variant (SARS-CoV-2). Briefly: ELISA on coated RBD. (In general: ELISA stands for enzyme-linked immunosorbent assay.)
Experiment [2] concerns the target T2, recombinant SARS-CoV-2 Spike RBD domain, BA.4/5 variant (SARS-CoV-2). The experiment can be described thus: ELISA on coated RBD.
Experiment [3] addresses T3, recombinant SARS-CoV-2 Spike RBD domain, Delta variant (SARS-CoV-2). Briefly: ELISA on coated RBD.
Experiment [4] addresses T1, recombinant SARS-CoV-2 Spike RBD …. Briefly: competition ELISA, blocking of RBD binding to ACE2 ectodomain.
Experiment [5] concerns the target T2, recombinant SARS-CoV-2 Spike RBD …. Described as above.
Experiment [6] addresses T3, recombinant SARS-CoV-2 Spike RBD …. Described as above.

B1: SPK002 antibody (parental version Cv2.3194 described in WO 2022/228827) (antibody, V domains shown)
VH: EVQLVESGGGLIQPGGSLRLSCAASGITVTSNYMSWVRQAPGKGLEWVSVIYPGGSTFYADSVKGRFTISRDNSKNTLYLQMNSLRAEDTAVYYCARDLVVYGMDVWGQGTTVTVS
VL: EIVLTQSPGTLSLSPGERATLSCRASQSVSSSYLAWYQQKPGQAPRLLIYGASSRATGIPGRFSGSGSGTDFTLTISRLEPEDFAIYYCQQGVTFGGGTKVEIK
With B1, the Binding AUC turned out to be 33 in experiment [1], 33 in experiment [2] and 34 in experiment [3]. Besides, the results for the Blocking % in experiment [4], in experiment [5] and in experiment [6] were 94%, 92% and 93%, respectively.
